Experimental findings from patent US20260008847A1 (ELPISCIENCE SUZHOU BIOPHARMA, published 2026) are described below.

Positions count from the first letter of the chain named. Names may count otherwise.

For assay [1], the target named is 6×His-tagged human LILRB2 ECD recombinant protein (human) (UniProt Q8N423). The assay can be described thus: ELISA: plate coated with 6xHis-tagged human LILRB2 ECD, antibody at 0.5 ug/mL, HRP detection antibody; mean OD450 printed over the bar.
Assay [2] addresses Human LILRA1 ECD recombinant protein with 6×His-tag (human) (UniProt O75019). The assay can be described thus: ELISA: plate coated with LILRA1 ECD recombinant protein, antibody at 0.5 ug/mL (method of example 3.2.1); mean OD450 printed over the bar.
The target in assay [3] is Human LILRA2 ECD recombinant protein with His-tag (human) (UniProt Q8N149). In words: ELISA: plate coated with LILRA2 ECD recombinant protein, antibody at 0.5 ug/mL (method of example 3.2.1); mean OD450 printed over the bar [continued) B].
Human LILRA2 ECD recombinant protein with His-tag (human), sequence (Q8N149 24-449 limits assumed): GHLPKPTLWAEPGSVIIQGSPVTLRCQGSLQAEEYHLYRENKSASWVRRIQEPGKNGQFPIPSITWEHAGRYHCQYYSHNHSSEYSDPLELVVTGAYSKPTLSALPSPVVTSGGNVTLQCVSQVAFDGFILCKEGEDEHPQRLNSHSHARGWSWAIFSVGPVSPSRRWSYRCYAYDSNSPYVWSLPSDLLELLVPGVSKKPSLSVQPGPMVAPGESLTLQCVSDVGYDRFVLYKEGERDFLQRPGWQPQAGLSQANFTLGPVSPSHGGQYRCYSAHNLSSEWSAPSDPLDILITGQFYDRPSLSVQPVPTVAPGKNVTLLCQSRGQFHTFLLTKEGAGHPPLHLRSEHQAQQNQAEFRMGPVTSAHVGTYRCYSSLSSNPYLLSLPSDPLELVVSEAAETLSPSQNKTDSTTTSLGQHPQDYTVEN
Assay [4] concerns the target Human LILRA3 ECD recombinant protein with 6×His-tag (human) (UniProt Q8N6C8). In words: ELISA: plate coated with LILRA3 ECD recombinant protein, antibody at 0.5 ug/mL (method of example 3.2.1); mean OD450 printed over the bar [continued) C].
Assay [5] has as its target Human LILRA4 ECD recombinant protein with 6×His-tag (human) (UniProt P59901). In words: ELISA: plate coated with LILRA4 ECD recombinant protein, antibody at 0.5 ug/mL (method of example 3.2.1); mean OD450 printed over the bar [continued) D].
Assay [6] concerns the target Human LILRA5 ECD recombinant protein with 6×His-tag (human) (UniProt A6NI73). In words: ELISA: plate coated with LILRA5 ECD recombinant protein, antibody at 0.5 ug/mL (method of example 3.2.1); mean OD450 printed over the bar [continued) E].
Assay [7] concerns the target Human LILRB1 ECD recombinant protein with 6×His-tag (human) (UniProt Q8NHL6). The assay can be described thus: ELISA: plate coated with LILRB1 ECD recombinant protein, antibody at 0.5 ug/mL (method of example 3.2.1); mean OD450 printed over the bar [continued) F].
Assay [8] has as its target Human LILRB3 ECD recombinant protein with 6×His-tag (human) (UniProt O75022). The assay can be described thus: ELISA: plate coated with LILRB3 ECD recombinant protein, antibody at 0.5 ug/mL (method of example 3.2.1); mean OD450 printed over the bar [continued) G].
Assay [9] concerns the target Human LILRB4 ECD recombinant protein with 6×His-tag (human) (UniProt Q8NHJ6). The assay can be described thus: ELISA: plate coated with LILRB4 ECD recombinant protein, antibody at 0.5 ug/mL (method of example 3.2.1); mean OD450 printed over the bar [continued) H].
Assay [10] addresses Human LILRB5 ECD recombinant protein with 6×His-tag (human) (UniProt O75023). The assay can be described thus: ELISA: plate coated with LILRB5 ECD recombinant protein, antibody at 0.5 ug/mL (method of example 3.2.1); mean OD450 printed over the bar [continued) I].
Assay [11] addresses T1, 6×His-tagged human LILRB2 ECD recombinant protein (human, UniProt Q8N423 22-458, limits assumed).
T1 construct: Bought protein; not shown: 6×His-tag
The assay can be described thus: Bio-Layer Interferometry, hybridoma antibody on human LILRB2.

Assay [12] concerns the target T1, 6×His-tagged human LILRB2 ECD …. In words: Octet, 1:1 model.
Assay [13] has as its target T2, Human LILRB2 stably expressed on EL4 cells (EL4/LILRB2) (human, UniProt Q8N423 22-597).
T2 construct: also called EL4-LILRB2 cells; cell membrane human LILRB2
In words: FACS on EL4/LILRB2 cells.

Assay [14] has as its target T2, Human LILRB2 stably expressed on EL4 …. The assay can be described thus: competitive FACS, blockade of HLA-G binding to LILRB2 on cells.
Description: The blocking activities were determined by quantitating the blockade of the ligands binding to EL4/LILRB2 cells.
Assay [15] has as its target T1, 6×His-tagged human LILRB2 ECD …. The assay can be described thus: Octet, 1:1 model; column printed as 'kd (1/s)', heads of c4 and c5 are swapped.
For assay [16] the target is unchanged. The assay can be described thus: Octet, 1:1 model; column printed as 'ka (1/Ms)', heads of c4 and c5 are swapped.
Assay [17] has the same target. In words: Biacore, 1:1 model.
Assay [18] shares this target. In words: Biacore, 1:1 model; column printed as 'kd (1/s)', heads of c4 and c5 are swapped.
For assay [19] the target is unchanged. In words: Biacore, 1:1 model; column printed as 'ka (1/Ms)', heads of c4 and c5 are swapped.

T1 sequence (Q8N423 22-458 limits assumed): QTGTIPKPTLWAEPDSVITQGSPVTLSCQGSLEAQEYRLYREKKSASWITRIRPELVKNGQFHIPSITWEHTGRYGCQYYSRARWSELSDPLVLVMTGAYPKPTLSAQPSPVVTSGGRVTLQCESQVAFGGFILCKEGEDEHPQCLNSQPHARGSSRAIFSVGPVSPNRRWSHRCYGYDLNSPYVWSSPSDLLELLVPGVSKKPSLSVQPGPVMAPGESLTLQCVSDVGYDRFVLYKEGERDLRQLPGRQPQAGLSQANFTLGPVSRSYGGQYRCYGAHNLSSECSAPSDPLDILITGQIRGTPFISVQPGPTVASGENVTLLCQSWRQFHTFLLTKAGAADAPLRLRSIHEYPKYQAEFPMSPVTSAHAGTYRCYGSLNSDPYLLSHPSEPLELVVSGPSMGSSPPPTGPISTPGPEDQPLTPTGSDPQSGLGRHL
T2 sequence (Q8N423 22-597 limits assumed): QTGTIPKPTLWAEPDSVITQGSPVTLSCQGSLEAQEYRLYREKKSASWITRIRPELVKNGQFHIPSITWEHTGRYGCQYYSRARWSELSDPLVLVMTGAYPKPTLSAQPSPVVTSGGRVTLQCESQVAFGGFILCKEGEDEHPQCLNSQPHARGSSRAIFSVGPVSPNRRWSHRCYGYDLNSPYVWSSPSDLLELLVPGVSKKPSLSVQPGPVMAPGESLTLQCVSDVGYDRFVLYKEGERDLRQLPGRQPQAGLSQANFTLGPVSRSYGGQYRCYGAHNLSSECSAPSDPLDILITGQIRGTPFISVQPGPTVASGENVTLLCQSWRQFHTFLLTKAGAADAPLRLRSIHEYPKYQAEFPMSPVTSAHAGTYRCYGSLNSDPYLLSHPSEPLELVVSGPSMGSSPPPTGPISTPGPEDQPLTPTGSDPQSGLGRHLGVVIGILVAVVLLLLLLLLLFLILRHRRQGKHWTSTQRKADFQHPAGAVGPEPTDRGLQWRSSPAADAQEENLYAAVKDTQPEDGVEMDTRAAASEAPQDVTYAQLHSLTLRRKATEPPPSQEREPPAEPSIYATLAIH
Human LILRA3 ECD recombinant protein with 6×His-tag (human), sequence (Q8N6C8 24-439 limits assumed, form in doubt): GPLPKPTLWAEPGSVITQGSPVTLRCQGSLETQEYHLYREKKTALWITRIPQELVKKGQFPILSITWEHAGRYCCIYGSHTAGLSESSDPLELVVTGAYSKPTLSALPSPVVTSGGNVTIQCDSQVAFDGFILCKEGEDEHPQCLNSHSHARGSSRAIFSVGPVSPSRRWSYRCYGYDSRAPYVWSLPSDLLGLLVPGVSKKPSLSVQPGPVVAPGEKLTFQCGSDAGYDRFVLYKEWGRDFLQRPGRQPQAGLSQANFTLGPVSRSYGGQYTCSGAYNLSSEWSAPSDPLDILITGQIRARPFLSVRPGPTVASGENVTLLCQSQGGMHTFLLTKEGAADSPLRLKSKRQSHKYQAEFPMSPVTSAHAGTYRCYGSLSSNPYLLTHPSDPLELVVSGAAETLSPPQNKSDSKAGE
Human LILRA4 ECD recombinant protein with 6×His-tag (human), sequence (P59901 24-446 limits assumed): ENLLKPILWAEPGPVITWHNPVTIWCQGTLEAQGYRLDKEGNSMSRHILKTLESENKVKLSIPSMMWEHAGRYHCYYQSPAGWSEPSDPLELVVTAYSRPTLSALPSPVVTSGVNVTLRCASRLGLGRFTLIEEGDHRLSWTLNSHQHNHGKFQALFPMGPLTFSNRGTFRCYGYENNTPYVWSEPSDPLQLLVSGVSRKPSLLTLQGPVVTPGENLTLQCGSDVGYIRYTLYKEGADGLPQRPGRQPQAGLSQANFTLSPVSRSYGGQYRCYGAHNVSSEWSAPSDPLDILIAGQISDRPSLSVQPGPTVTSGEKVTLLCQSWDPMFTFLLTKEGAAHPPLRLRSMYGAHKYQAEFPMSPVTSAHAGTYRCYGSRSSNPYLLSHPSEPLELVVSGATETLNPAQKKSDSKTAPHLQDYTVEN
Human LILRA5 ECD recombinant protein with 6×His-tag (human), sequence (A6NI73 42-268 limits assumed, form in doubt): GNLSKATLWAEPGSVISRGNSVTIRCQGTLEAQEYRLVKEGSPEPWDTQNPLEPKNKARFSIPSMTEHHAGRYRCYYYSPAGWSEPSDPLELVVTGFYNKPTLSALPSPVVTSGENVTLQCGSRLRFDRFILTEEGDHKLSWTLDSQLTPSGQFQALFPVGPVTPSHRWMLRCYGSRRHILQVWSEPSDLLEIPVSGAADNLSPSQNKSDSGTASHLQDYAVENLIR
Human LILRB1 ECD recombinant protein with 6×His-tag (human), sequence (Q8NHL6 24-458 limits assumed): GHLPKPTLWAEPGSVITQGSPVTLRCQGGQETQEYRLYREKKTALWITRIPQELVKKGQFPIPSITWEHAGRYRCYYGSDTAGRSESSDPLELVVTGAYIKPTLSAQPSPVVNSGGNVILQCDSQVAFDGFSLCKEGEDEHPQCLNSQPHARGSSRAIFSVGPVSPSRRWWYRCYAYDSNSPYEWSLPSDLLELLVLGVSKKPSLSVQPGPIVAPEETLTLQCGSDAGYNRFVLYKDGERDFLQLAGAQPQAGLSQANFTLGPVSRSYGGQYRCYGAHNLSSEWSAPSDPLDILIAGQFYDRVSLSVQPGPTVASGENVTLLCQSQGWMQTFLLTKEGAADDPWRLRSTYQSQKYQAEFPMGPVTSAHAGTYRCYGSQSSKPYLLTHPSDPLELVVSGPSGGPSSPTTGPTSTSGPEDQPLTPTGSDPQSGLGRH
Human LILRB5 ECD recombinant protein with 6×His-tag (human), sequence (O75023 24-458 limits assumed): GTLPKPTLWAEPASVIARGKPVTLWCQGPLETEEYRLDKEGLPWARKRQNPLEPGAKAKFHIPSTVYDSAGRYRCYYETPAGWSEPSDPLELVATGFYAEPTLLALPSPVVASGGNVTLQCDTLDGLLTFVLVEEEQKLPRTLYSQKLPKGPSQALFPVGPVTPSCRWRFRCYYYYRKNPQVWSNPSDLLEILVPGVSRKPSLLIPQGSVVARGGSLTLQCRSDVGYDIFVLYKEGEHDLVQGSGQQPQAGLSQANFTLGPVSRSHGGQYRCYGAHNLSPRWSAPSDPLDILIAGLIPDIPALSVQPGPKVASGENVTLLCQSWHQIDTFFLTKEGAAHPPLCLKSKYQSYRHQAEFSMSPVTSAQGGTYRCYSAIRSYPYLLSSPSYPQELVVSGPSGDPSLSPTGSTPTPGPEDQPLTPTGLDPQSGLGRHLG
Human LILRA1 ECD recombinant protein with 6×His-tag (human), sequence (O75019 17-461 limits assumed): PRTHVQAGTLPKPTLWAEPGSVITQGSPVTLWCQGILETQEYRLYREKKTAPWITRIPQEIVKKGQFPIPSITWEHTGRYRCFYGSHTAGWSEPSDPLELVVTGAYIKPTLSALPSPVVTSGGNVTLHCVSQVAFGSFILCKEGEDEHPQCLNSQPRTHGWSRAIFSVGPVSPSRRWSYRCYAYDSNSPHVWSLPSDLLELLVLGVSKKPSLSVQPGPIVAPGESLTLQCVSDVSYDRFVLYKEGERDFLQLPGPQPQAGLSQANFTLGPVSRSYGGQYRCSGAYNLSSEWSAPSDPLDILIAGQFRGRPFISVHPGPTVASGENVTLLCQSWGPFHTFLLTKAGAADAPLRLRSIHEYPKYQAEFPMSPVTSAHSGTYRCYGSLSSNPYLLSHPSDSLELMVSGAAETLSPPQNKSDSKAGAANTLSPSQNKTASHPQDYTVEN
6×His-tagged human LILRB2 ECD recombinant protein (human), sequence (Q8N423 22-458 limits assumed): as the sequence (Q8N423 22-458 limits assumed) above

With hIgG4 iso (antibody), the OD450 in assay [1] was determined as 0.08; in assay [2], 0.15; in assay [3], 0.07; in assay [4], 0.08; in assay [5], 0.16; in [6], 0.08. The OD450 turned out to be 0.08 in [7], 0.08 in assay [8], 0.14 in [9] and 0.08 in [10].

B1: monoclonal antibody secreted by hybridoma clone 8G2F10 (antibody, V domains shown)
VH: QVQLQQSGAELAKPGASVKLSCKASGYTFTSYWMYWVKQRPGQGLEWIGHINPSSGYTKYNQKFKDKATLTADKSSSTAYMQLSSLTYEDSAVYYCARDPNWDNYWGQGTTLTVSS
VL: DIVMTQSHKFMSTSVGDRVSITCKASQDVSIAVAWYQQKPGQSPKLLIYSASYRYTGVPDRFTGSGSGTDFTFTISSVQAEDLAVYYCQQHYSTPYTFGGGTKLEIK
notes: Mouse hybridoma antibody
Turning to B1, in assay [11], the Kd turned out to be 1.35 nM, the koff amounted to 0.00139 s⁻¹ and the kon worked out at 1.04e+06 M⁻¹ s⁻¹.

B2: hu043.04 (antibody, V domains shown)
VH: QVQLVQSGAEVKKPGASVKVSCKASGYTFTSYWMYWVRQAPGQGLEWIGHINPSSGYTKYNQKFKDRATLTADTSTSTAYMELSSLRSEDTAVYYCARDPNWDNYWGQGTTVTVSS
VL: DIQMTQSPSSLSASVGDRVTITCKASQDVSIAVAWYQQKPGKAPKLLIYSASYRYTGVPSRFSGSGSGTDFTFTISSLQPEDIATYYCQQHYSTPYTFGGGTKLEIK
notes: Humanized human IgG4 antibody with S228P in the constant region; also called hu043VH6 / hu043VL2
As to B2, the dissociation constant (Kd) in assay [12] was 3.78 nM. In assay [13], the response was half-maximal at 0.43 nM (EC50) and the “TOP MFI” value came out at 45000 MFI. Moreover, in assay [14], the IC50 was found to be 0.11 nM and the “TOP Blocking (%)” value was 100%. Besides, the kon in assay [15] was found to be 488000 M⁻¹ s⁻¹. Also, the koff in assay [16] worked out at 0.00185 s⁻¹.

B3: hu043.06 (antibody, V domains shown)
VH: B2 VH with V5Q, V20L, A40R
VL: B2 VL
notes: Humanized human IgG4 antibody with S228P in the constant region; also called hu043VH8 / hu043VL2
As for B3, the Kd in [12] turned out to be 3.63 nM. In assay [13], the 50% effective concentration (EC50) was 0.4 nM and the “TOP MFI” value stood at 45700 MFI. Besides, in assay [14], the IC50 was 0.11 nM and the “TOP Blocking (%)” value is 100%. For the same molecule, the kon in [15] was 512000 M⁻¹ s⁻¹. The off-rate constant (koff) in assay [16] amounted to 0.00186 s⁻¹.

B4: hu043.08 (antibody, V domains shown)
VH: B2 VH with R67K, T74K, V112L
VL: B2 VL with L11M, L78V
notes: Humanized human IgG4 antibody with S228P in the constant region; also called hu043VH10 / hu043VL1
In the case of B4, in assay [17], the Kd amounted to 1.71 nM. In assay [14], the IC50 stood at 0.19 nM and the “TOP Blocking (%)” value is 100%. For the same molecule, in [18], the on-rate (kon) came to 2.21e+06 M⁻¹ s⁻¹. In assay [19], the koff was 0.00378 s⁻¹.

B5: hu043.02 (antibody, V domains shown)
VH: B2 VH with A68V, L70M, A79V
VL: B2 VL with Q3V, T20S, S60D
notes: Humanized human IgG4 antibody with S228P in the constant region; also called hu043VH7 / hu043VL4
For the molecule B5, the Kd in [12] came out at 3.57 nM. In [13], the concentration for a half-maximal effect (EC50) came out at 0.35 nM and the “TOP MFI” value came out at 45700 MFI. Moreover, in assay [14], the IC50 was found to be 0.1 nM and the “TOP Blocking (%)” value was 100%. The kon in assay [15] was 517000 M⁻¹ s⁻¹. Further, the koff in [16] was determined as 0.00184 s⁻¹.

B6: hu043.07 (antibody, V domains shown)
VH: B2 VH with R67K, T74K
VL: B2 VL with L11M, L78V
notes: Humanized human IgG4 antibody with S228P in the constant region; also called hu043VH9 / hu043VL1
Regarding B6, the Kd in [17] was 1.68 nM. In assay [14], the IC50 was 0.19 nM and the “TOP Blocking (%)” value worked out at 100%. Further, the kon in assay [18] was determined as 2.25e+06 M⁻¹ s⁻¹. For the same molecule, the koff in assay [19] was determined as 0.00379 s⁻¹.

B7: hu043.01 (antibody, V domains shown)
VH: B2 VH
VL: B2 VL with Q3V, T20S, S60D
notes: Humanized human IgG4 antibody with S228P in the constant region; also called hu043VH6 / hu043VL4
In the case of B7, in [12], the Kd worked out at 3.19 nM. In addition, in assay [13], the midpoint of the response, the EC50, lay at 0.42 nM and the “TOP MFI” value amounted to 45800 MFI. In addition, in assay [14], the IC50 was 0.11 nM and the “TOP Blocking (%)” value was 100%. Further, in [15], the kon is 516000 M⁻¹ s⁻¹. Besides, the koff in assay [16] was 0.00164 s⁻¹.

B8: hu043.03 (antibody, V domains shown)
VH: B2 VH with V5Q, V20L, A40R
VL: B2 VL with Q3V, T20S, S60D
notes: Humanized human IgG4 antibody with S228P in the constant region; also called hu043VH8 / hu043VL4
Take B8: in [12], the Kd was found to be 5.22 nM. In addition, in assay [13], a half-maximal response (EC50) required 0.41 nM and the “TOP MFI” value was found to be 46300 MFI. In addition, in [14], the IC50 was 0.1 nM and the “TOP Blocking (%)” value came out at 100%. Also, in assay [15], the kon turned out to be 466000 M⁻¹ s⁻¹. In addition, the koff in assay [16] stood at 0.00243 s⁻¹.

B9: hu043.05 (antibody, V domains shown)
VH: B2 VH with A68V, L70M, A79V
VL: B2 VL
notes: Humanized human IgG4 antibody with S228P in the constant region; also called hu043VH7 / hu043VL2
As to B9, the Kd in assay [12] amounted to 3.9 nM. In assay [13], the EC50 came out at 0.42 nM and the “TOP MFI” value is 45100 MFI. Moreover, in [14], the IC50 is 0.09 nM and the “TOP Blocking (%)” value was found to be 100%. Besides, the kon in [15] was 501000 M⁻¹ s⁻¹. In assay [16], the koff is 0.00199 s⁻¹.
